Target: T1, recombinant EF1a protein (rEF1a), elongation factor 1 alpha of Entamoeba histolytica (Entamoeba histolytica, UniProt P31018 1-442)
T1 construct: Elongation factor 1 alpha (EF1a) of Entamoeba histolytica
T1 sequence (looked up): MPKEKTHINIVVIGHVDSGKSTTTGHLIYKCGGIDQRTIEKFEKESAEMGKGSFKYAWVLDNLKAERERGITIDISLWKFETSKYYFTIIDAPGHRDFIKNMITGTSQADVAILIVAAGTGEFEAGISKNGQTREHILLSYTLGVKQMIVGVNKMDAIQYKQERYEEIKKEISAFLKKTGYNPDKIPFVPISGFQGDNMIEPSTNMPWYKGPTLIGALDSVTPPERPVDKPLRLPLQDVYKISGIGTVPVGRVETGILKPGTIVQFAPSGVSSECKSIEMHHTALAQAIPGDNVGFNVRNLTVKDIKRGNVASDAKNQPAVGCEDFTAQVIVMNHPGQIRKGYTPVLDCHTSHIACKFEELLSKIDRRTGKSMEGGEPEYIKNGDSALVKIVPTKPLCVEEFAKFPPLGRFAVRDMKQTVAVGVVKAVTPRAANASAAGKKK
Test: BLI; Octet-Red96; Igl-C (30 ug/mL, sodium acetate pH 4.0) or BSA (sodium acetate pH 5.0) immobilised on activated AR2G biosensors; rEF1a as analyte, twofold dilutions 4000 to 250 nM; running buffer pH 7.4, 1x Kinetics buffer, 30 °C; 1:1 binding model
Conditions: both partners purified

B1: C-terminal fragment of the intermediate subunit of the Gal/GalNAc lectin (Igl-C) (domain or fragment)
chain: EGPNAEDKKKSCAQLNNNCKKEGKYEISDGFVTCLDCDDSAYIVGSQVGACTQCSPNAFKDENNKCQLCSTKQSQYGHCAACSATACITCEDINLILTGEKPCTVCKDGFYQIENATDGVYCSPCPAKCKTCKYNTTSKKVECVTCTEQRLKDIKAPECACPTGTVQLENGTCQSCSDLSKYPGCKKTDSCNVDSRTGFIYATECSDGFSGRSPYSNCTTCTKSNYYPKEGEKNGCAKCDDKCATCSDKDTCLTCADPLKVGSKCDGCKTGYYMSNGECKPCTNHCSECSSAAECTVCESDTYKVISGNGCNSCVDGFYFDEIKGTCIPCTSPCTKCVGVKKDCEEQETGCNSEKKKIVEECTKCSTKDHIAEVPVNGACVCAYGYVEGTSTEDNKIECQACKAKVNEFCDSCNSKDCLRCNAEYLEAKGGECVCVEGYYTSSWGSCIPCSRHMPHCTKCTGEGECTTCEDGWKLKDGKCNGAKGI
**Q.** Which results are given for B1?
**A.** Kd: 90.7 nM; koff: 0.000347 s⁻¹; kon: 3810 M⁻¹ s⁻¹

Source: PMC7558290, “Evaluation on Elongation Factor 1 Alpha of Entamoeba histolytica Interaction with the Intermediate Subunit of the Gal/GalNAc Lectin and Actin in Phagocytosis” (Pathogens, 2020)
